Laboratory results reported in patent US20200289603A1 (ELIXIRON IMMUNOTHERAPEUTICS HONG KONG, published 2020).

Assays:
[1] = target: recombinant human IFNγ protein (R&D systems, 285-IF-100) (human) (UniProt P01579); experiment: BLI (ForteBio Octet RED96); summary sentence to Table 10
[2] = target: recombinant human IFNγ protein (R&D systems, 285-IF-100) (human) (UniProt P01579); experiment: BLI (ForteBio Octet RED96); antibody captured on AHC anti-hIgG Fc biosensor, recombinant human IFNγ in solution; 1:1 Langmuir fit
[3] = target: T1, recombinant human IFNγ protein (R&D systems, 285-IF-100) (human, UniProt P01579 24-166); experiment: cell-based or functional assay
T1 sequence: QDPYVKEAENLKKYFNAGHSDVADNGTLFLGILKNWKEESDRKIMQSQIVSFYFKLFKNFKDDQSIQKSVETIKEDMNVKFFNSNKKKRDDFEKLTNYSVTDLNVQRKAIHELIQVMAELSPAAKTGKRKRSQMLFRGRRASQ

[4] = target: T1, recombinant human IFNγ protein (R&D …); experiment: BLI (ForteBio Octet RED96); summary sentence to Table 9
BSA = target: T2, BSA (UniProt P02769 25-607); experiment: ELISA on plate coated with BSA (2 µg/mL)
T2 construct: also called bovine serum albumin

[5] = target: T1, recombinant human IFNγ protein (R&D …); experiment: BLI (ForteBio Octet RED96); summary sentence to Table 10

T2 sequence (P02769 25-607 limits assumed): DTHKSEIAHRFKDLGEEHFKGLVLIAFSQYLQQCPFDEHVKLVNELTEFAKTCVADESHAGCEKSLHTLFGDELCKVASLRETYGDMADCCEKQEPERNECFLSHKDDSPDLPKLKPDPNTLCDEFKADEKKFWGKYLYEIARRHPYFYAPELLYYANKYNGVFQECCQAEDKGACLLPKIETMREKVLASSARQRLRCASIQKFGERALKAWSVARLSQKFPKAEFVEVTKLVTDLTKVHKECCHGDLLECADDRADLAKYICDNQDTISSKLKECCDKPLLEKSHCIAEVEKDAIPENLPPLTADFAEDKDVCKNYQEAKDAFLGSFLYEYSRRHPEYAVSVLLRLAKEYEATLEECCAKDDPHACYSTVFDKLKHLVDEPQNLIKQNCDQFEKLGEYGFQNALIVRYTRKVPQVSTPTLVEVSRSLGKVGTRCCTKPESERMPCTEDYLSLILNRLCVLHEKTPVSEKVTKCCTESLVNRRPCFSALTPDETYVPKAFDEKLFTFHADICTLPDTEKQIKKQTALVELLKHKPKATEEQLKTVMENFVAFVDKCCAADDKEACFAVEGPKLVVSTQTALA

Molecule: AMG811 (antibody)
- Kd [1]: < 0.1 nM

B1: 2F2 (antibody, from a related filing, V domains shown)
VH: EVQLVESGGGLVKPGESLRLACVASGFNFSDYYMTWIRQAPGKGLEWVSYISNSGSHTYYADAVKGRFTVSRDNAKNSLYLQMTSLRGEDTAIYFCARDPSIMRGTYYMDVWGKGTTVTVSS
VL: QSVLTQPPSASGTPGQRVTISCSGSSSNIGTNPVSWYQQFPGMAPKLLIYFNNQRPSGVPERFSGSKSGTPASLAIGGLQSEDEANYYCASWDDTLNGLVFGGGTKLTVL
- Kd [2]: 0.317 nM
- koff [2]: 0.000109 s⁻¹
- kon [2]: 344000 M⁻¹ s⁻¹

B2: 1E8 (antibody, from a related filing, V domains shown)
VH: EVQLLESGGGLVQPGGPLRLSCAASGFTFSIYSMNWVRQAPGKGLEWVSSISGSGDNTYYADSVKGRFTITRDSSKNTLYLQMNTLRAEDTAVYFCAKSGRNIISPGFDSWGQGTLVTVSS
VL: QPVLTQPPSASASLGASVTLTCTLNSDYGDYKVDWYQQRPGKGPRFVMRVGTGGIVGSKGDGIPDRFSVLGSGLNRFLTIKNIQEEDESDYYCGADHGSANNFIWVFGGGTKLTVL
- Kd [2]: 0.261 nM
- koff [2]: 0.000121 s⁻¹
- kon [2]: 464000 M⁻¹ s⁻¹

B3: 2A6 (antibody, human IgG1, lambda, V domains shown)
VH: EVQLVESGGGLVKPGDSLTVSCVASGFTFSNYFIHWVRQAPGKGLEWVATISGRTKYMFYSDSLRGRFTVSRDNANNSVYLHMSSLRGEDTALYYCVRGYDHSDSNSAADLLHWGRGTLVTVSS
VL: NFMLTQPLSVSGYPGKTIVISCVRSSGSVASHYVQWFQQRPGSAPAMVIYEDSHRPSGIPDRFSGSVDASSNSASLTISGLKTEDEADYFCQSYYGNNQVLFGGGTKLTVLG
modifications: partial N-linked glycosylation at position 76 of the VH region
notes: Human IgG1 lambda, cloned from a single patient B cell and expressed in FreeStyle 293-F cells; also called 2A6 anti-IFNγ mAb
- inhibition of HLA-DR expression on THP-1 cells stimulated with 2 ng/mL recombinant human IFN-γ, IC50 [3]: 3.4 ng/mL
- Kd [4]: < 0.1 nM
- binding result (BSA): no binding (tested: 1 µg/mL and 0.1 µg/mL)

B4: 2B6 (antibody, human IgG1, lambda, V domains shown)
VH: EVQLVESGGGLVKPGGSLRLSCAASGFPFSRYSMHWVRQAPGKGLEWVSSMTSRTNHKYYADSLKGRFLISRDNDRDSLYLEMNSLGVEDTAIYFCARGYDTSGSDSGVDFQYWGQGTLVTVSS
VL: NFMLTQPHSVSESPGKTITISCTRGRGYIASYYVQWYQQRPGGVPKIVVFEDTQRPSGVPDRISGSIDTSTNSASLTISGLQTEDEADYYCQSYDDANHVIFGGGTKLTVLG
notes: Human IgG1 lambda; also called 2B6 anti-IFNγ mAb
- inhibition of HLA-DR expression on THP-1 cells stimulated with 2 ng/mL recombinant human IFN-γ, IC50 [3]: 3.5 ng/mL
- Kd [4]: < 0.1 nM
- binding result (BSA): no binding (tested: 1 µg/mL and 0.1 µg/mL)

B5: AB (antibody, V domains shown)
VH: B3 VH
VL: B4 VL
- Kd [5]: < 0.1 nM
- binding result (BSA): no binding (tested: 1 µg/mL and 0.1 µg/mL)

B6: BA (antibody, V domains shown)
VH: B4 VH
VL: NFMLTQPLSVSGYPGKTIVISCVRSSGSVASHYVQWFQQRPGSAPAMVIYEDSHRPSGIPDRFSGSVDASSNSASLTISGLKTEDEADYFCQSYYGNNQVLFGGGTKLTVL
notes: Expressed from the same human IgG1 lambda vector as 2A6 and 2B6; also called antibody having the 2B6-VH and 2A6-VL
- binding result (BSA): no binding (tested: 1 µg/mL and 0.1 µg/mL)
